B1: 34 (protein)
chain: STAIAQEGAAPAAILHPEKWPRPATQRLIDPAVEKRVDALLKQLSVEEKVGQVIQGDIGTITPEDLRKYPLGSILAGGNSGPNGDDRAPPKEWLDLADAFYRVSLEKRPGHTPIPVLFGIDAVHGHGNIGSATIFPHNIALGATHDPELLRRIGEVTAVEMAATGIDWTFAPALSVVRDDRWGRTYEGFSEDPEIVAAYSAAIVEGVQGKFGSKDFMAPGRSVASAKHFLADGGTDQGRDQGDARISEDELIRIHNAGYPPAIDAGVLTVMASFSSWQGIKHHGHKQLLTDVLKGQMGFNGFIVGDWNAHDQVPGCTKFNCPTSLIAGLDMYMAADSWKQLYENTLAQVKDGTIPMARLDDAVRRILRVKVLAGLFEKPAPKDRPGLPGLETLGSPEHRAVGREAVRKSLVLLKNDKGTLPLSPKARVLVAGDGADNIGKQSGGWTISWQGTGNRNDEFPGATSILGGIRDAVADAGGSVEFDVAGQYKTKPDVAIVVFGEEPYAEFQGDVETLEYQPDQKQDLALLKKLKDQGIPVVAVFLSGRPMWVNPELNASDAFVAAWLPGTEGGGVADVLFTDKAGKVQHDFAGKLSYSWPRTAAQTTVNRGDADYNPLFAYGYGLTYKDKSKVGTLPEESGVPAEARQNAGIYFRAGALRLPGRFL
B2: 36 (protein)
chain: STAIAQEGAAPAAILHPEKWPRPATQRLIDPAVEKRVDALLKQLSVEEKVGQVIQGDIGTITPEDLRKYPLGSILAGGNSGPNGDDRAPPKEWLDLADAFYRVSLEKRPGHTPIPVLFGIDAVHGHGNIGSATIFPHNIALGMTHDPELLRRIGEVTAVEMAATGIDWTFAPALSVVRDDRWGRTYEGFSEDPEIVAAYSAAIVEGVQGKFGSKDFMAPGRIVASAKHFLADGGTDQGRDQGDARISEDELIRIHNAGYPPAIDAGVLTVMASFSSWQGIKHHGHKQLLTDVLKGQMGFNGFIVGDWNAHDQVPGCTKFNCPTSLIAGLDMYMAADSWKQLYENTLAQVKDGTIPMARLDDAVRRILRVKVLAGLFEKPAPKDRPGLPGLETLGSPEHRAVGREAVRKSLVLLKNDKGTLPLSPKARVLVAGDGADNIGKQSGGWTISWQGTGNRNDEFPGATSILGGIRDAVADAGGSVEFDVAGQYKTKPDVAIVVFGEEPYAEFQGDVETLEYQPDQKQDLALLKKLKDQGIPVVAVFLSGRPMWVNPELNASDAFVAAWLPGTEGGGVADVLFTDKAGKVQHDFAGKLSYSWPRTAAQTTVNRGDADYNPLFAYGYGLTYKDKSKVGTLPEESGVPAEARQNAGIYFRAGALRLPGRFL
B3: 39 (protein)
chain: STAIAQEGAAPAAILHPEKWPRPATQRLIDPAVEKRVDALLKQLSVEEKVGQVIQGDIGTITPEDLRKYPLGSILAGGNSGPNGDDRAPPKEWLDLADAFYRVSLEKRPGHTPIPVLFGIDAVHGHGNIGSATIFPHNIALGQTHDPELLRRIGEVTAVEMAATGIDWTFAPALSVVRDDRWGRTYEGFSEDPEIVAAYSAAIVEGVQGKFGSKDFMAPGRIVASAKHFLADGGTDQGRDQGDARISEDELIRIHNAGYPPAIDAGVLTVMASFSSWQGIKHHGHKQLLTDVLKGQMGFNGFIVGDWNAHDQVPGCTKFNCPTSLIAGLDMYMAADSWKQLYENTLAQVKDGTIPMARLDDAVRRILRVKVLAGLFEKPAPKDRPGLPGLETLGSPEHRAVGREAVRKSLVLLKNDKGTLPLSPKARVLVAGDGADNIGKQSGGWTISWQGTGNRNDEFPGATSILGGIRDAVADAGGSVEFDVAGQYKTKPDVAIVVFGEEPYAEFQGDVETLEYQPDQKQDLALLKKLKDQGIPVVAVFLSGRPMWVNPELNASDAFVAAWLPGTEGGGVADVLFTDKAGKVQHDFAGKLSYSWPRTAAQTTVNRGDADYNPLFAYGYGLTYKDKSKVGTLPEESGVPAEARQNAGIYFRAGALRLPGRFL
B4: 37 (protein)
chain: STAIAQEGAAPAAILHPEKWPRPATQRLIDPAVEKRVDALLKQLSVEEKVGQVIQGDIGTITPEDLRKYPLGSILAGGNSGPNGDDRAPPKEWLDLADAFYRVSLEKRPGHTPIPVLFGIDAVHGHGNIGSATIFPHNIALGATHDPELLRRIGEVTAVEMAATGIDWTFAPALSVVRDDRWGRTYEGFSEDPELVAAYSAAIVEGVQGKFGSKDFMAPGRIVASAKHFLADGGTDQGRDQGDARISEDELIRIHNAGYPPAIDAGVLTVMASFSSWQGIKHHGHKQLLTDVLKGQMGFNGFIVGDWNAHDQVPGCTKFNCPTSLIAGLDMYMAADSWKQLYENTLAQVKDGTIPMARLDDAVRRILRVKVLAGLFEKPAPKDRPGLPGLETLGSPEHRAVGREAVRKSLVLLKNDKGTLPLSPKARVLVAGDGADNIGKQSGGWTISWQGTGNRNDEFPGATSILGGIRDAVADAGGSVEFDVAGQYKTKPDVAIVVFGEEPYAEFQGDVETLEYQPDQKQDLALLKKLKDQGIPVVAVFLSGRPMWVNPELNASDAFVAAWLPGTEGGGVADVLFTDKAGKVQHDFAGKLSYSWPRTAAQTTVNRGDADYNPLFAYGYGLTYKDKSKVGTLPEESGVPAEARQNAGIYFRAGALRLPGRFL
B5: 35 (protein)
chain: STAIAQEGAAPAAILHPEKWPRPATQRLIDPAVEKRVDALLKQLSVEEKVGQVIQGDIGTITPEDLRKYPLGSILAGGNSGPNGDDRAPPKEWLDLADAFYRVSLEKRPGHTPIPVLFGIDAVHGHGNIGSATIFPHNIALGATHDPELLRRIGEVTAVEMAATGIDWTFAPALSVVRDDRWGRTYEGFSEDPEIVAAYSAKIVEGVQGKFGSKDFMAPGRIVASAKHFLADGGTDQGRDQGDARISEDELIRIHNAGYPPAIDAGVLTVMASFSSWQGIKHHGHKQLLTDVLKGQMGFNGFIVGDWNAHDQVPGCTKFNCPTSLIAGLDMYMAADSWKQLYENTLAQVKDGTIPMARLDDAVRRILRVKVLAGLFEKPAPKDRPGLPGLETLGSPEHRAVGREAVRKSLVLLKNDKGTLPLSPKARVLVAGDGADNIGKQSGGWTISWQGTGNRNDEFPGATSILGGIRDAVADAGGSVEFDVAGQYKTKPDVAIVVFGEEPYAEFQGDVETLEYQPDQKQDLALLKKLKDQGIPVVAVFLSGRPMWVNPELNASDAFVAAWLPGTEGGGVADVLFTDKAGKVQHDFAGKLSYSWPRTAAQTTVNRGDADYNPLFAYGYGLTYKDKSKVGTLPEESGVPAEARQNAGIYFRAGALRLPGRFL
B6: 38 (protein)
chain: STAIAQEGAAPAAILHPEKWPRPATQRLIDPAVEKRVDALLKQLSVEEKVGQVIQGDIGTITPEDLRKYPLGSILAGGNSGPNGDDRAPPKEWLDLADAFYRVSLEKRPGHTPIPVLFGIDAVHGHGNIGSATIFPHNIALGATHDPELLRRIGEVTAVEMAATGIDWTFAPSLSVVRDDRWGRTYEGFSEDPEIVAAYSAAIVEGVQGKFGSKDFMAPGRIVASAKHFLADGGTDQGRDQGDARISEDELIRIHNAGYPPAIDAGVLTVMASFSSWQGIKHHGHKQLLTDVLKGQMGFNGFIVGDWNAHDQVPGCTKFNCPTSLIAGLDMYMAADSWKQLYENTLAQVKDGTIPMARLDDAVRRILRVKVLAGLFEKPAPKDRPGLPGLETLGSPEHRAVGREAVRKSLVLLKNDKGTLPLSPKARVLVAGDGADNIGKQSGGWTISWQGTGNRNDEFPGATSILGGIRDAVADAGGSVEFDVAGQYKTKPDVAIVVFGEEPYAEFQGDVETLEYQPDQKQDLALLKKLKDQGIPVVAVFLSGRPMWVNPELNASDAFVAAWLPGTEGGGVADVLFTDKAGKVQHDFAGKLSYSWPRTAAQTTVNRGDADYNPLFAYGYGLTYKDKSKVGTLPEESGVPAEARQNAGIYFRAGALRLPGRFL

assay: High throughput cellobiose assay: fold improvement in cellobiase activity of CelA variants over a control enzyme (Tables 2A-2D, 3, 5, 6, 7); assay type: biochemical; details: 3.3 g/l cellobiose, 50° C. and pH 6.5; compared to native CelA (SEQ ID NO: 4)
Description: β-glucosidase activity was also determined using a cellobiose assay, which used cellobiose as substrate. In a total volume of 100 μL, 25 μL clear media supernatant containing CelA enzyme was added to 10 g/L cellobiose (Fluka Cat. No. 22150, Sigma-Aldrich, Inc., St. Louis, Mo.) in 100 mM sodium phosphate buffer (pH 6-7) or sodium acetate buffer (pH 5-5.5). The reaction was incubated at 45-70° C. for an appropriate time (25 minutes to overnight depending on the enzyme concentration) while shaking. Glucose production was determined using an enzymatic glucose assay (K-GLUC, Megazyme, Ireland). 10 μl of each reaction was added to 190 μl GOPOD reagent (supplied as part of the K-GLUC assay kit). The reaction was incubated at 45° C. for 20 minutes and the absorbance of the solution was measured at 510 nm. The GOPOD reagent contains 50 mM Potassium phosphate buffer pH7.4, 0.011M p-hydroxybenzoic acid, 0.008% w/v sodium azide, glucose oxidase (>12,000 U/L), peroxidase (>650 U/L) and 80 mg/L 4-aminoantipyrine. The glucose oxidase enzyme in the reagent reacts with any glucose present in the sample and produces hydrogen peroxide which then reacts with the 4-aminoantipyrine to produce a quinoneimine dye in quantities proportionate with the amount of glucose present and can be measured spectrophotometrically at 510 nm. Detectable β-glucosidase activity was observed under high throughput screening conditions (i.e., pH 7, 50° C.).
Plasmid libraries containing variant CelA genes were transformed into B. megaterium and plated on Luria-Bertani (LB) agar plates containing 3 μg/mL tetracycline with a DM3 regeneration media overlay (400 mM sodium succinate dibasic, pH 7.3, 0.5% casamino acids, 0.5% yeast extract, 0.4% K2HPO4, 0.2% KH2PO4, 20 mM MgCl2, 0.5% glucose and 0.2% BSA). After incubation for at least 18 hours at 30° C., colonies were picked using a Q-bot® robotic colony picker (Genetix USA, Inc., Beaverton, Oreg.) into shallow, 96-well well microtiter plates containing 180 μL, LB and 10 μg/mL tetracycline. Cells were grown overnight at 37° C. with shaking at 200 rpm and 85% humidity. 10 μL of this culture was then transferred into 96-well microtiter plates (deep well) containing 390 μL A5-glucose-xylose medium and 10 μg/mL tetracycline as described in example 2. The plates were then incubated at 37° C. with shaking at 250 rpm and 85% humidity overnight (˜18-24 hours). The deep plates were centrifuged at 4000 rpm for 15 minutes and the clear media supernatant containing the secreted CelA enzyme was used for the high throughput pNPG or cellobiose assay of Example 5.
The CelA libraries were screened in high throughput using the cellobiose assay of Example 5 (Substrate: cellobiose; pH: 5-7; temperature: 45-72° C.; time: 2-24 hrs) for the identification of improved variants.
In shallow, 96-well microtiter plates 25 μL of media supernatant was added to 75 μL of […] cellobiose in 150 mM sodium acetate buffer pH 5-5.5 or 150 mM sodium phosphate buffer pH6-7. After sealing with aluminum/polypropylene laminate heat seal tape (Velocity 11 (Menlo Park, Calif.), Cat#06643-001), the plates were shaken at 45-65° C. for up to 24 hrs. The plates were centrifuged for 5 minutes at 4000 rpm. In shallow well clear microtiter plates, 10 μL of the reaction mixture was added to 190 μL of GOPOD reagent (as in example 5B) per well. The solutions were incubated at 45° C. for 1 hour and absorbance was measured at 510 nm for the identification of active CelA variants.
Improved CelA variants were identified from the high throughput screening of various CelA variant libraries as described in Example 7, using the cellobiose assay of Example 5 using 3.3 g/l cellobiose at temperatures from 50°-55° C. at a pH in the range of 5.3-6.5. Tables 2A, 2B, 2C, and 2D and Table 3 depict the improvement in activities of CelA variants encompassed by the invention. The assay conditions are indicated in each table. […]

Question: Which “Fold improvement over wildtype CelA” value does the source give for B1 here?
Answer: + (+ = 1.1 to 2.0 fold improvement over native CelA (SEQ ID NO: 4))

Question: Which “Fold improvement over wildtype CelA” value does the source give for B2 here?
Answer: + (+ = 1.1 to 2.0 fold improvement over native CelA (SEQ ID NO: 4))

Question: With B3 as the molecule, how does the “Fold improvement over wildtype CelA” value read?
Answer: + (+ = 1.1 to 2.0 fold improvement over native CelA (SEQ ID NO: 4))

Question: For B4, which “Fold improvement over wildtype CelA” value is on record?
Answer: + (+ = 1.1 to 2.0 fold improvement over native CelA (SEQ ID NO: 4))

Question: Which “Fold improvement over wildtype CelA” value does the source give for B5 here?
Answer: + (+ = 1.1 to 2.0 fold improvement over native CelA (SEQ ID NO: 4))

Question: With B6 as the molecule, how does the “Fold improvement over wildtype CelA” value read?
Answer: + (+ = 1.1 to 2.0 fold improvement over native CelA (SEQ ID NO: 4))

— patent US8357523B2, “Beta-glucosidase variant enzymes and related polynucleotides” (Codexis, Inc., priority 2009, dated 2013)
